In US9453838B2, “Methods for making microarrays and their uses” (Asociación Centro De Investigación Cooperative En Bioma …, priority 2013, dated 2016):

Columns and labels:
Conditions in all cases: RNAse-B 50 μg/mL in PBS
[1] = test system: WGA (Wheat Germ Agglutinin); test: Lectin array, RNAse B binding by fluorescence scanning and MALDI-Tof MS
Protocol: (§1) Slides were stored at −20° C.

[2] = target: T1, GNA (Galanthus nivalis agglutinin) (Galanthus nivalis, UniProt P30617); test: as above
T1 sequence (P30617 20-128): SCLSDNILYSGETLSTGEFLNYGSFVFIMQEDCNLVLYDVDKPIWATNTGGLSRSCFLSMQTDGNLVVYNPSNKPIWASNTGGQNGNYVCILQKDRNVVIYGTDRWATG
Protocol: as §1

ConA = ConA (Canavalia ensiformis, UniProt P02866)
Protocol: 0.4-0.3 mg/mL (glyco)protein solutions (Concanavalin A, ConA; WGA; and Galanthus nivalis agglutinin, GNA, lectins and RNAse B glycoprotein) were prepared in PBS, and 50 drops (˜0.3 nL per drop) were deposited onto the surface with a dot pitch of 750×750 μm. Slides were then incubated overnight at room temperature in 90% humidity, washed with PBS, quenched with ethanolamine and dried by purging Ar. Slides were stored at −20° C.
A lectin array of ConA, GNA and WGA was printed onto slides as described above, and Cy3-labelled or unlabelled RNAse-B (50 μg/mL in PBS) was added to wells. RNAse B binding and lectin modifications were analyzed by fluorescence imaging and MALDI-Tof MS (FIG. 12).

B1: RNAse B: RNAse B glycoprotein, glycoforms presenting mannose oligosaccharides M5-M9 (protein, UniProt P61823 27-150, looked up)
Ribonuclease pancreatic: KETAAAKFERQHMDSSTSAASSSNYCNQMMKSRNLTKDRCKPVNTFVHESLADVQAVCSQKNVACKNGQTNCYQSYSTMSITDCRETGSSKYPNCAYKTTQANKHIIVACEGNPYVPVHFDASV
modifications: glycoform B
[1]
  interaction with WGA: no interaction
[2]
  binding to GNA: binding
ConA
  binding to ConA: binding
